Patent publication US20230272086A1 (CHIA TAI TIANQING PHARMACEUTICAL GROUP, published 2023)

T1: human ST2 (hST2, Interleukin-1 receptor-like 1 isoform A) on cells (human, UniProt Q01638 19-556)
T1 sequence: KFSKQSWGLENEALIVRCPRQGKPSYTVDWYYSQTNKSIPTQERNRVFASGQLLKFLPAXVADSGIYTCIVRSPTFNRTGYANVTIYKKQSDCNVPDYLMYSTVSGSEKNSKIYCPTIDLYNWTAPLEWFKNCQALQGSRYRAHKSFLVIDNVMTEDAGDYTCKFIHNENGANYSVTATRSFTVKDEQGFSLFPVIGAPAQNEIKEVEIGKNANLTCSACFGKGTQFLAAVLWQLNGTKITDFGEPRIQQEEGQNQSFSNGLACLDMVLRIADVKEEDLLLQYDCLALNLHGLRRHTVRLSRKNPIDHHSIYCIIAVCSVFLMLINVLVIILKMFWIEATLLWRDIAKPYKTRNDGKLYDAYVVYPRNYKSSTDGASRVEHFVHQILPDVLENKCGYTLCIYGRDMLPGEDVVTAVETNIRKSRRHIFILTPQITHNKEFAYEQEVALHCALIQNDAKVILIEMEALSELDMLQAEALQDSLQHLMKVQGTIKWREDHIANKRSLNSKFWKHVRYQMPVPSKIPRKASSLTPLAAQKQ

T2: cynomolgus monkey ST2 antigen (Cyno-ST2-his, Sino biological, 90915-C08H) (cynomolgus monkey, UniProt Q01638 19-328 (human entry))
T2 construct: Bought protein; not shown: his tag
T2 chain: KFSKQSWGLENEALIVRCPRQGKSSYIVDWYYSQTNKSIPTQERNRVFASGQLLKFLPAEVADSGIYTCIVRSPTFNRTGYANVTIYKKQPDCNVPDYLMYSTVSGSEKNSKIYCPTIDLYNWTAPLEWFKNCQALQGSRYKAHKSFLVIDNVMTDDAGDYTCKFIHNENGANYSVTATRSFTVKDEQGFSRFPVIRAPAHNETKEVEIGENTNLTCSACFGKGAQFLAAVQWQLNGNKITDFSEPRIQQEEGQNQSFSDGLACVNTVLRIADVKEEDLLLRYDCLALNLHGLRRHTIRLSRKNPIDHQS

T3: recombinant protein containing hST2 extracellular domain with mouse antibody heavy chain Fc tag (hST2-ECD-mFc) (human)
T3 construct: Used for SPR and for ELISA of chimeric and humanized antibodies; also called human ST2 antigen
T3 chain: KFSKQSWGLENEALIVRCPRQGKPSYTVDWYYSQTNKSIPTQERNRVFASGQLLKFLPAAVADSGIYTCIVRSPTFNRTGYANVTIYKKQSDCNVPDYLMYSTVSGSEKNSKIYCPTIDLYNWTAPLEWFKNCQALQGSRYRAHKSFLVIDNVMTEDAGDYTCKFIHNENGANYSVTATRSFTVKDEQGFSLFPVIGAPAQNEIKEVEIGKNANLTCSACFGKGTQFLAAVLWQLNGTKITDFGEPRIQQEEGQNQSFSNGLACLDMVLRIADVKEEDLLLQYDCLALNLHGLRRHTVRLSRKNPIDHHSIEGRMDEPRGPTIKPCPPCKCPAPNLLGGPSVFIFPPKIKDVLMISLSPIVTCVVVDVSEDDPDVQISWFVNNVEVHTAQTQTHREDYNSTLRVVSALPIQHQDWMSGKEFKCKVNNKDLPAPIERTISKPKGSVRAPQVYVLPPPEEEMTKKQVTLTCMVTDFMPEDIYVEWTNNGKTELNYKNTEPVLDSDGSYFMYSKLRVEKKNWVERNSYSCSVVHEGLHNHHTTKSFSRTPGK


Legend:
[1] = molecular target: T1, human ST2 (hST2, Interleukin-1 …); experiment: cell-based or functional assay
[2] = molecular target: T2, cynomolgus monkey ST2 antigen …; experiment: ELISA, plate coated with Cyno-ST2-his
Procedure: ST2 binding screening and analysis of antibodies were performed by ELISA using hST2-ECD-mFc (for assays of chimeric and humanized antibodies), hST2-ECD-hFc protein (for assays of hybridoma antibodies) and Cyno-ST2-his (Sino biological, 90915-C08H) as antigens. A high-adsorption 96-well plate (Costar, 9018) was coated with 2 µg/mL hST2-ECD-mFc or Cyno-ST2-his antigen at 100 µL/well and incubated overnight at 4° C. After the antigen not adsorbed was well washed off, the non-specific binding sites were blocked with a blocking buffer (PBS containing 2% bovine serum albumin). After the plate was washed three times with a washing buffer (PBS containing 0.05% (v/v) Tween 20), the anti-ST2 antibodies (serially diluted 3-fold from an initial concentration of 10 nM to 8 concentrations: 3.333 nM, 1.111 nM, 0.370 nM, 0.123 nM, 0.041 nM, 0.014 nM, 0.005 nM, and 0.002 nM) were added at 100 µL/well, and the plate was incubated at room temperature for 1 h. After the plate was washed with the washing buffer, a horseradish peroxidase (HRP)-conjugated secondary antibody was added, and the plate was incubated for another 60 min. After the plate was washed with the washing buffer, the substrate TMB solution (Thermo, 00-4201-56) was added at 100 µL/well, and the plate was incubated at room temperature for 2 min. A stop solution (2 N H₂SO₄) was added at 100 µL/well to terminate the reactions. Colorimetric signals were generated and read at 450 nm using a microplate reader (PE, Envision). The data were analyzed using GraphPad Prism5, and the EC₅₀ values were calculated.

[3] = molecular target: T1, human ST2 (hST2, Interleukin-1 …); experiment: cell-based or functional assay; remark: listed apart in the source
[4] = molecular target: T3, recombinant protein containing hST2 …; experiment: SPR (Biacore T200), hST2-ECD-mFc captured by anti-mouse IgG on CM5, antibody as analyte, 1:1 model
Procedure: The reaction signals were detected in real time using a Biacore instrument (Cytiva, BiacoreT200), and then an association-dissociation curve was obtained. After the completion of dissociation in each cycle, the biochip was regenerated with a regeneration solution for the next capture; the procedure was repeated until the affinity of the different antibodies for ST2 was determined. The acquired data were finally analyzed using the GE BIAevaluation software with a 1:1 (Langmuir) binding model to determine the association rate constants ka (kon) and the dissociation rate constants kd (koff), and the dissociation constants KD were given by KD = kd/ka. The determined affinity of the anti-ST2 antibody for human ST2 antigen (hST2-ECD-mFc), cynomolgus monkey ST2 antigen (Cyno-ST2-his, Sino biological, 90915-C08H) and the determined affinity of the anti-ST2 chimeric antibodies for ST2 were shown in Table 5.

Binder | IC50, blocking of the IL33/ST2 signaling (NFκB luciferase reporter, HEK293T-hST2-NFκB-Luciferase cells) [1] | IC50, blocking of the IL33/ST2 signaling (NFκB luciferase reporter, KU812-NFκB-Luciferase cells naturally expressing hST2, 200 pM hIL33) [1] | EC50 [2] | IC50, blocking of the IL33/ST2-induced IL5 secretion on CD4+ T cells (hIL33 plus IL2 co-stimulation) [3] | Kd [4]
Chimeric 31C8 (antibody, human IgG2, kappa, V domains shown, also called xi31C8) VH: QVQLQQSGPELVRPGASVTLSCKASGYIFIDSEMHWVKQTPVHGLEWIGAIDPETGDTVYNQKFKGKATLTADKSSSTASMELSSLTSEDSAVYYCTGSTTDYYFAYWGQGTTLTVSS VL: DIVMTQAAFSNPVTLGTSASISCRSSKSLLHSNGIIYLYWYLQKPGQSPQLLIYQMSNLASGVPDRFSSSGSGTDFTLRISRVEAEDVGVYYCAQNLELPFTFGSGTKLEIKR | 15.6 nM | 16 pM | 0.163 nM | 0.09 nM | 0.0177 nM
Chimeric 3C6 (antibody, human IgG2, kappa, V domains shown, also called xi3C6) VH: QVQLQQSGAEVVRPGASVTLSCKASDYTITDYEMHWVKQTPVHGLEWIGAIDPETGDTAYSQNFKGKATLTADESSSTAYMELSSLTSEDSAVYYCSRSATDYYFASWGQGTTLTVSS VL: DIVMTQAAISNPVTLGTSASMSCRSSKSLLHSNGITYLYWYLQKPGHSPQLLIYQMSNLASGVPDRFSSSGSGTDFTLKISRVEAEDVGVYYCAQNLELPFTFGSGTKLEIKR |  |  | 0.43 nM |  | 0.0872 nM
Chimeric 8F4 (antibody, human IgG2, kappa, V domains shown, also called xi8F4) VH: QVQLQQSGAELVRPGASVTLSCKASGHIFTDYEMQWVKQTPVHGLEWIGAFDPETGDTAYNQKFKGKATLTADKSSSTAYMELSSLTSEDSAVYYCSGSTTDYYFAYWGQGTSLTVSS VL: DVVMTQTAFSNPVTLGTSASISCRSSKSLLHSNGIIYLYWYLQKPGQSPQLLIYQMSNLASGVPDRFSSSGSGTDFTLRISRVEAEDVGVYYCAQNLELPFTFGSGTKLEIKR |  |  | 0.164 nM |  | 0.0933 nM
Chimeric 17E2 (antibody, human IgG2, kappa, V domains shown, also called xi17E2) VH: QVQLQQSGAELVRPGASVTLSCKASGYTFTDYEMHWVKQTPVLGLEWIGAIDPETGDTAYNQKFKGKATLTADKSSSTAYMELSSLASEDSAVYYCIRVDSNYDYFDYWGQDTTLTVSS VL: DIVLTQSPPILSASPGEKVTMTCRASSSVSYMHWYQQKPGSSPKPWIYDTSNLASGVPARFSGSGSGTSYSLTISRVEAEDAATYYCQQWSSNPLTFGAGTKLELKR |  |  | 0.22 nM | 0.08 nM | 0.0541 nM
Chimeric 7D1 (antibody, human IgG2, kappa, V domains shown, also called xi7D1) VH: QVQLQQSGAELVRPGASVTLSCKASGYTFTDYEMHWVKQTPVHGLDWIGTIDPETGDTAYNQKFKGRATLTADKSSSTAYMELSSLTSEDSAVYYCTRYSYTNSPYGMDYWGQGTSVTVSS VL: DVVMTQTPKFLLVSAGDRVTITCKASQSVSNDVAWYQQKPGQSPKLLIYYASNRYTGVPDRFTGSGYGTDFTFTINTVQAEDLAVYFCQQDYSSPYTFGGGTKLEIKR |  |  | 0.191 nM | 0.12 nM | 0.145 nM
Humanized 31C8-1.1 (antibody, human IgG2, kappa, V domains shown, also called hz31C8-1.1; hz31C81-1.1) VH: EVQLVQSGAEVKKPGATVKISCKASGYIFIDSEMHWVQQAPGKGLEWMGAIDPETGDTVYAEKFQGRVTITADKSSSTAYMELSSLRSEDTAVYYCTGSTTDYYFAYWGQGTLVTVSS VL: DIQMTQSPSSLSASVGDRVTITCRSSKSLLHSNGIIYLYWYQQKPGKAPKLLIYQLSNLASGVPSRFSSSGSGTDFTLTISSLQPEDFATYYCAQNLELPFTFGQGTKVEIKR | 15.9 nM | 8 pM |  |  | 

Second part, the binder after the results:

IC50, blocking of the IL33/ST2 signaling (NFκB luciferase reporter, HEK293T-hST2-NFκB-Luciferase cells) [1] | IC50, blocking of the IL33/ST2 signaling (NFκB luciferase reporter, KU812-NFκB-Luciferase cells naturally expressing hST2, 200 pM hIL33) [1] | EC50 [2] | IC50, blocking of the IL33/ST2-induced IL5 secretion on CD4+ T cells (hIL33 plus IL2 co-stimulation) [3] | Kd [4] | Binder
 |  | 0.946 nM |  | 0.0299 nM | Chimeric 26A1 (antibody, human IgG2, kappa, V domains shown, also called xi26A1) VH: QVQLQQSGAELVRPGASVTLSCKASDYIFTDSEIHWVKQTLVHGLEWIGAIDPETGDTAYNQKFKGKATLTADKSSSTAYMELSSLTSEGSAVYYCSGSTTDCYFAYWGQGTTLTVSS VL: DIVMTQAAFSNPVTLGTSASISCRSSKSLLHSNGIIYLYWYLQKPGQSPQLLIYQMSNLASGVPDRFSSSGSGTDFTLRISRVEAEDVGVYYCAQNLELPFTFGSGTKLEIKR
84.3 nM | 47 pM | 0.129 nM | 0.32 nM | 0.0686 nM | RG6149 (antibody Ab2 in CN104334582, prepared in-house) (antibody, human IgG2, kappa, V domains shown, Control anti-ST2 antibody) VH: EVQLVQSGAEVKKPGESLKISCKGSGYSFTNYWIGWVRQMPGKGLEWMGIIYPGNSDTRFSPSFQGQVTISADKSITTAYLQWSSLKASDTAMYYCARHGTSSDYYGLDVWGQGTTVTVSS VL: not shown
29.2 nM | 0.111 nM |  |  |  | GSK3772847 (antibody STLM208 in CN104411333, prepared in-house) (antibody, human IgG2, kappa, V domains shown, Control anti-ST2 antibody) VH: EVQLLESGGGLVQPGGSLRLSCAASGFTFSIYDMIWVRQAPGKGLEWVSSIRGEGGGTYYADSVKGRFTISRDNSKNTLYLQMNSLRAEDTAVYYCARDPWSTEGSFFVLDYWGQGTLVTVSS VL: EIVLTQSPATLSLSPGERATLSCRASQSVDDDLAWYQQKPGQAPRLLIYDASNRATGIPARFSGSGSGTDFTLTISSLEPEDFAVYYCQQYITAPLTFGQGTKVEIKR
20.4 nM | 6 pM |  |  |  | Humanized 31C8-1.2 (antibody, human IgG2, kappa, V domains shown, also called hz31C8-1.2; hz31C81-1.2) VH: QVQLVQSGAKVKKPGATVKISCKASGYIFIDSEMHWVQQAPGKGLEWMGAIDPETGDTVYAKKFKGRVTITADKSSSTAYMELSSLRSEDTAVYYCTGSTTDYYFAYWGQGTLVTVSS VL: DIQMTQSPSSLSASVGDRVTITCRSSKSLLHSNGIIYLYWYQQKPGKAPKLLIYQLSNLASGVPSRFSSSGSGTDFTLTISSLQPEDFATYYCAQNLELPFTFGQGTKVEIKR
